The source of these data is US9657088B2, “Anti-HSV antibody” (priority 2009, dated 2017).

Bounds are passed on as bounds.

The test system of assay [1] is patient derived HSV-1 isolate resistant towards Acyclovir, Foscarnet and Cidovovir. Briefly: Treatment of NOD/SCID mice infected with multi-resistant patient HSV-1 isolate. In kind it is in vivo. To be noted: for protection against lethal encephalitis: 15 mg/kg i.v. at 24 h, 40 h and 56 h post infection. From the text:
Mice receiving twice daily standard treatment with Acyclovir all died within 28 days.
Furthermore, the humanized mAb 2c-V1 also confers protection from viral dissemination and lethal encephalitis in the presence of an established peripheral HSV infection. […] In contrast, mice receiving Acyclovir all died (FIG. 12).

In another assay the test system is human DNA polymerase. The note with it: background statement; cited from earlier work.
The target in assay [2] is T1, glycoprotein B on surface of HSV-1 F infected Vero cells (Human herpesvirus 1, UniProt P06436).
T1 construct: expressing the gB-protein as membrane associated glycoprotein on the cell surface during the natural HSV replication cycle; endogenous in cells; host or cells: Vero cells infected with HSV-1 F (MOI 3); gB is made by the virus in the infected cell
Briefly: Affinity constants (KD) by flow cytometry on HSV-1 F infected Vero cells. In kind it is binding.

In assay [3] the test system is HSV-1 laboratory strains and clinical isolates. In words: Neutralization of HSV-1 laboratory strains and clinical isolates (FIG. 8). In kind it is cell-based. Here is the method: (§1) To determine the titer of mAb h2c-V1 for complete virus neutralization several antibody concentrations were incubated for 1 h at 37° C. with 100 TCID50 of HSV-1 or HSV-2 isolates and incubated for 3 days with Vero cells. MAb hu2c-V1 neutralizes HSV-1 laboratory strains HSV-1 F, HSV-1 324 hv, HSV-1 17 syn^+, HSV-1 TK^− completely at concentrations of 7.8-15.6 nM. HSV-1 clinical isolates are neutralized by mAb h2c-V1 similarly irrespective of their resistance profile. Furthermore, the same neutralization efficiency of mAb hu2c-V1 was shown for strain HSV-2 G and ACV-resistant HSV-2 isolates at concentrations of 31.3-62.5 nM.

The subject of assay [4] is HSV-2 G and ACV-resistant HSV-2 isolates. In words: Neutralization of HSV-2 strain and isolates (FIG. 8). To be noted: 100 TCID50, 3 days. In kind it is cell-based. The protocol:
as §1

In assay [5] the target is T2, gB present on the surface of HSV-1 infected Vero cells (Human herpesvirus 1, UniProt P06436).
T2 construct: endogenous in cells; host or cells: Vero cells infected with HSV-1 (3 moi, 20 h)
Briefly: Competition study with mAb 2c by flow cytometry. In kind it is binding. To be noted: increasing concentrations, then 100 nM mAb 2c. For orientation: A flow cytometer gives signals particle by particle.

The test system of another assay is HSV-1. Briefly: Plaque-reduction assay with or without human complement. In kind it is cell-based. The note with it: 2 μg/ml, with or without 10% human complement. (In a plaque reduction assay, fewer plaques than in the control indicate reduced infectivity or spread.)
Assay [6] concerns HSV-1 F. In words: Cell-to-cell spread assay in Vero cell monolayers. In kind it is cell-based. The note with it: 500 nM, 48 h. The protocol:
Vero cells grown to confluency on glass cover slips in 24-weel tissue culture plates are infected for 4 h at 37° C. with a constant virus amount of 400 TCID50/well. One median tissue culture infective dose (1 TCID50) is the amount of a cytopathogenic agent, such as a virus, that will produce a cytopathic effect in 50% of the cell cultures inoculated. The virus inoculum is subsequently removed, the cells washed twice with PBS and further incubated for 2 days at 37° C. in 1 ml DMEM, 2% FCS, Pen/Strep containing an excess of either different anti-HSV antibodies or polyclonal anti-HSV control serum in order to prevent viral spreading via the supernatant Viral antigens of HSV-infected cells are detected with a fluorescence labelled polyclonal goat-anti-HSV-serum (BETHYL Labolatories, Montgomery, Tex. USA, Catalog No. A190-136F, Lot No. A190-136F-2).
Two days after infection spreading of the virus was detected with fluorescence labeled polyclonal goat-anti-HSV serum using a Leica DM IRE2 confocal microscope at 40-fold magnification.
For spreading within a host HSV uses two mechanisms: release of cell-free particles and direct, cell-to-cell spread. […] Viral antigens were detected by staining of HSV-1 infected cell monolayers with FITC-conjugated polyclonal goat-anti-HSV serum (BETHYL, Montgomery, Tex., USA) diluted 1:100 in blocking buffer. […]

The test system of assay [7] is HSV-1 F. Briefly: Passive immunization of NOD/SCID mice 24 h before intravaginal HSV-1 challenge. To be noted: 24 h prior to infection. In kind it is in vivo. The protocol: Mice were infected intravaginally with 1×10^6 TCID50/20 μl of the neurovirulent HSV-1 strain F. Infected mice with symptoms of weight loss, vulvitis/vaginitis or neurological diseases were killed, and their organs examined for infectious virus by titration on Vero cell monolayers as described previously. Non-infected mice were killed at day 30. Animals per group n=7.
Animals per group n=7 for PBS, n=9 all other groups.
(§2) Anesthetized female nonobese diabetic/severe combined immunodeficient (NOD-SCID) mice (NOD.CB17-Prkdc^scid/J, Charles River Laboratories, Research Models and Services, Sulzfeld, Germany), 6-8 weeks of age, were challenged intravaginally with 20 μl inoculum of 1×10^6 TCID50 HSV-1 F per mouse. Skin glue (Epiglu, Meyer-Haake Medical Innovations, Wehrheim, Germany) was applied onto the vulva to prevent discharge of the virus inoculum. […] Mice were examined daily after viral inoculation for loss of weight, vulvitis/vaginitis (redness, mucopurulent discharge and signs of inflammation) and neurological disease. Mice displaying any of theses symptoms were sacrificed immediately. […] Mice were assessed for infection by determination of virus titers from vaginal irrigations obtained on days 1, 2, 4, 6 and 8 after infection and at the time of death using the endpoint dilution assay on Vero cells. Viral loads in organs (spleen, adrenal gland, lung heart, liver, kidney, spinal cord, and brain) of sacrificed mice were determined after homogenization of organs by titration on Vero cell monolayers as described elsewhere (41). Each test and control group contained 9-10 animals with detectable HSV-1 infection.
Natural killer (NK) cells accumulating at the site of HSV-2 infection in humans (28) are the early source of interferon-γ (45), which plays an essential role for the control of HSV infection (2, 45, 62).

The subject of assay [8] is HSV-1 F. In words: Post-exposure treatment of NOD/SCID mice with established HSV-1 infection. In kind it is in vivo. To be noted: 15 mg/kg i.v. at 24 h, 40 h and 56 h post infection. The protocol:
Infected animals per group n=7.
Vaginal virus titers of antibody or control treated mice were determined from vaginal irrigations cultured on Vero cell monolayers. Error bars indicate standard deviation.
as §2

`Nc1nc(=O)c2ncn(COCCO)c2[nH]1` [Acyclovir, 2-Amino-9-(2-hydroxyethoxymethyl)-3H-purin-6-on, reference compound]: the outcome of infection in assay [1] (standard treatment with Acyclovir) is listed as “all died”. For the same molecule, in [1] (twice daily standard treatment), the “time by which all mice died” value was no more than 28 days. Also, the “factor by which human DNA polymerase is less susceptible than viral DNA polymerase” value in the assay with human DNA polymerase is listed as 30-50.

B1: h2c-V1: humanized mAb 2c variant, CDR grafting onto DP28/DPK13, no backmutations (antibody, V domains shown)
VH: QVTLKESGPALVKPTQTLTLTCTFSGFSLSTSGMSVGWIRQPPGKALEWLAHIWWNNDKYYKPALKSRLTISKDTSKNQVVLTMTNMDPVDTATYYCARIYYGYRPYAMDYWGQGTLVTVSS
VL: DIVMTQTPLSLPVTPGEPASISCRSSQSIVHSNGNTYLEWYLQKPGQSPQLLIYKVSNRFSGVPDRFSGSGSGTDFTLKISRVEAEDVGVYYCFQGSHVPWSFGQGTKVEIKR
Regarding B1, the “affinity in comparison to mAb 2c” value in assay [2] is recorded as “affinity comparable to the murine mAb 2c”. The “concentration for complete neutralization” value in assay [3] (HSV-1 F, HSV-1 324 hv, HSV-1 17 syn+, HSV-1 TK−, 100 TCID50, 3 days) lay in the range of 7.8 to 15.6 nM; in assay [4] it was 31.3 to 62.5 nM. Also, the “neutralization of patient isolates clinically resistant to ACV, ACV and PFA, or ACV, PFA and CDV” value in [3] (compared with non-resistant laboratory strains) was “with the same efficiency as non-resistant laboratory strains or clinical isolates with unknown resistance”. In addition, the “competition with parental mAb 2c for binding” value in assay [5] is recorded as “compete with the parental mAb 2c for binding to gB”. Moreover, the “complement dependence of HSV neutralization” value in the assay with HSV-1 is reported as “neutralize HSV complement-independent”. The “inhibition of cell-to-cell spread” value in the assay with HSV-1 F [6] was “as efficient as the parenteral mAb 2c”. Further, the “protection against lethal encephalitis” value in the assay on HSV-1 F [7] (15 mg/kg i.v.) is “fully protected against lethal encephalitis”; in assay [1] (listed as mAb 2c-V1), “prevented lethal encephalitis”; in assay [1] (listed as mAb hu2c-V1) it was “significantly protected against lethal encephalitis”. The survival result with HSV-1 F [7] (single i.v. dose of 5 mg/kg) is listed as “prolongs the survival”. Also, the “protection from lethal outcome of established infection” value with HSV-1 F [8] is given as “completely protected from the lethal outcome of infection”.
